This note sets out measurements from US20180073089.

The data set has as its target recombinant substrate protein VAMP-2 (2-94)-GFP (UniProt P63027).

recombinant substrate protein VAMP-2 (2-94)-GFP, sequence (P63027 2-94): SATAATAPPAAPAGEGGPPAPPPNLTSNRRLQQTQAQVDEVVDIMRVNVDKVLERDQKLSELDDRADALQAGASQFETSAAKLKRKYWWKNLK

Consider native BoNT/F (nBoNT/F) control, for which the “% of cleaved product” value is given as 65% versus 46% and the specific activity was 26 nmol/h/pmol vs 18 nmol/h/pmol.
